{
  "source": "patent US10329331B2",
  "about": "“Polypeptides” (priority 2010, dated 2019)",
  "key": {"[1]": {"experiment": "Small animal PET whole body distribution of 68Ga-labeled polypeptide", "format": "in vivo", "conditions": "rat, after intravenous injection, PET over […]", "experimental": "The labeling mixture was incubated at 90° C. for 15 min before cooling, and the labeled protein was isolated by size exclusion purification on a NAP-5 column eluted with physiologically buffered saline.\nA rat (277 g) was anesthetized with isoflurane (initially 5%, then 2% blended with 7:3 air/O2), controlled by an E-Z vaporizer using Microflex non-rebreather masks from Euthanex Corporation, and was kept on a heating pad (37° C.) while lying within a microPET Focus120 system (Siemens, CTI Concorde Microsystems). ^68Ga-PEP08296, 33 MBq, was dispensed in a syringe, diluted with saline to 0.5 ml and injected via the tail vein. Data were acquired from the whole body by moving the bed in a constant bed motion protocol for 1.5 h. Data were processed with MicroPET Manager and corrected for randoms, dead time and decay. Images were reconstructed by standard 2D filtered back projection using a ramp filter and evaluated using Inveon Research Workplace (Siemens Medical Solutions) software."}, "[2]": {"tested_on": "IgG molecules present in normal human sera", "experiment": "Serum response analysis: ELISA of human serum IgG binding to albumin binding polypeptides", "conditions": "126 positive sera diluted 50 times; polypeptide 2 μg/ml on albumin coated plates", "experimental": "Each serum sample was tested as a singlet."}, "[3]": {"tested_on": "CD3+ CD4+ T cells in peripheral blood mononuclear cells (PBMC)"}, "physchem": {"experiment": "physchem", "format": "physicochemical", "experimental": "Amicon Ultra centrifugal filter units, cut off of 3 kDa, (Millipore, Cat. No. UFC800324) were prerinsed with 2 ml NaPi buffer by centrifugation at 4000 g for 20 min in a swinging bucket rotor centrifuge (Multifuge, Heraeus). […] A 25 μl sample was removed (UF sample 1) for further analysis and the rest of the sample was transferred to a second centrifugal filter unit. The centrifugation and sample removal were repeated three times with spinning times of 8, 9 and 20 min respectively (UF sample 2, 3 and 4 respectively). Absorbance readings were performed using a NANODROP ND-1000 Spectrophotometer and by diluting UF samples 1-4 in NaPi buffer 2, 4, 6 and 12 times respectively. The concentrations were calculated using the extinction coefficient 1 Abs 280=1.955 mg/ml. Gel filtration was performed on a 1100 HPLC system (Agilent Technologies) using a Superdex75 10/300 GL column (GE Healthcare) which had been equilibrated in NaPi buffer. 10 μl of each UF sample were applied to the column; NaPi buffer was used as running buffer and the flow rate was 0.5 ml/min. A chromatogram of the molecular weight standard ovalbumin (GE Healthcare), injected at a concentration of 5 mg/ml was collected as well. Concentrations were determined by integrating the area under the curve."}},
  "data": [
    {"smiles": "CC[C@H](C)[C@H](NC(=O)[C@H](C)NC(=O)[C@H](CC(=O)O)NC(=O)[C@H](CCCCN)NC(=O)[C@H](CC(C)C)NC(=O)[C@H](C)NC(=O)[C@H](CCC(=O)O)NC(=O)[C@@H](NC(=O)CNC(=O)[C@H](CCC(=O)O)NC(=O)[C@@H](NC(=O)[C@@H](NC(=O)[C@H](CCCCN)NC(=O)[C@H](C)NC(=O)[C@H](CCCCN)NC(=O)[C@H](CC(=O)O)NC(=O)[C@@H](NC(=O)[C@H](CC(C)C)NC(=O)[C@H](CCCNC(=N)N)NC(=O)[C@H](CCCCN)NC(=O)[C@H](Cc1ccc(O)cc1)NC(=O)[C@H](Cc1ccccc1)NC(=O)[C@H](CC(=O)O)NC(=O)[C@H](CO)NC(=O)[C@@H](NC(=O)CNC(=O)[C@H](Cc1ccc(O)cc1)NC(=O)[C@H](CSC1CC(=O)N(CCNC(=O)CN2CCN(CC(=O)O)CCN(CC(=O)O)CCN(CC(=O)O)CC2)C1=O)NC(=O)[C@H](CC(=O)O)NC(=O)[C@H](CC(C)C)NC(=O)[C@H](CCC(=O)O)NC(=O)[C@H](C)NC(=O)[C@H](CC(N)=O)NC(=O)[C@H](C)NC(=O)[C@H](C)NC(=O)[C@H](CCC(=O)O)NC(=O)[C@H](CCCCN)NC(=O)[C@H](C)NC(=O)[C@H](CCC(=O)O)NC(=O)[C@H](C)NC(=O)[C@H](CC(C)C)NC(=O)[C@H](CO)NC(=O)CN)C(C)C)[C@@H](C)CC)[C@@H](C)O)C(C)C)C(C)C)C(=O)N[C@@H](CC(C)C)C(=O)N[C@@H](C)C(=O)N[C@@H](C)C(=O)N[C@@H](CC(C)C)C(=O)N1CCC[C@H]1C(=O)NCC(=O)O", "note": "(single isomer, unassigned) [^68Ga-PEP08296, metal not drawn]", "values": [
      {"measurement": "plasma clearance", "setting": "[1]", "value": "very slow"}
    ]},
    {"smiles": "CC[C@H](C)[C@H](NC(=O)[C@H](Cc1c[nH]cn1)NC(=O)[C@H](CC(C)C)NC(=O)[C@H](CCCCN)NC(=O)[C@H](CC(C)C)NC(=O)[C@H](C)NC(=O)[C@H](CCC(=O)O)NC(=O)[C@@H](NC(=O)CNC(=O)[C@H](CCC(=O)O)NC(=O)[C@@H](NC(=O)[C@@H](NC(=O)[C@H](CCCCN)NC(=O)[C@H](C)NC(=O)[C@H](CCCCN)NC(=O)[C@H](CC(N)=O)NC(=O)[C@@H](NC(=O)[C@H](CC(C)C)NC(=O)[C@H](CCCNC(=N)N)NC(=O)[C@H](CCCCN)NC(=O)[C@H](Cc1ccc(O)cc1)NC(=O)[C@H](Cc1ccccc1)NC(=O)[C@H](CC(=O)O)NC(=O)[C@H](CO)NC(=O)[C@@H](NC(=O)CNC(=O)[C@H](Cc1ccc(O)cc1)NC(=O)[C@H](CCCCN)NC(=O)[C@H](CC(=O)O)NC(=O)[C@H](CC(C)C)NC(=O)[C@H](CCC(=O)O)NC(=O)[C@H](CCCNC(=N)N)NC(=O)[C@H](CC(N)=O)NC(=O)[C@H](C)NC(=O)[C@H](CC(C)C)NC(=O)[C@@H](NC(=O)[C@H](CCCCN)NC(=O)[C@H](C)NC(=O)[C@H](CCC(=O)O)NC(=O)[C@H](C)NC(=O)[C@H](CC(C)C)NC(=O)[C@H](CO)NC(=O)[C@H](CO)NC(=O)CN)C(C)C)C(C)C)[C@@H](C)CC)[C@@H](C)O)C(C)C)C(C)C)C(=O)N[C@@H](CC(C)C)C(=O)N[C@@H](C)C(=O)N[C@@H](C)C(=O)N[C@@H](CC(C)C)C(=O)N1CCC[C@H]1C(=O)O", "note": "[PEP06923]", "values": [
      {"measurement": "reactivity with IgG in human sera (average OD-value, percentage of sera with IgG binding)", "setting": "[2]", "value": "highest average OD-value and the highest percentage of serum with IgG binding"}
    ]},
    {"smiles": "CC[C@H](C)[C@H](NC(=O)[C@H](C)NC(=O)[C@H](CC(=O)O)NC(=O)[C@H](CCCCN)NC(=O)[C@H](CC(C)C)NC(=O)[C@H](C)NC(=O)[C@H](CCC(=O)O)NC(=O)[C@@H](NC(=O)CNC(=O)[C@H](CCC(=O)O)NC(=O)[C@@H](NC(=O)[C@@H](NC(=O)[C@H](CCCCN)NC(=O)[C@H](C)NC(=O)[C@H](CCCCN)NC(=O)[C@H](CC(=O)O)NC(=O)[C@@H](NC(=O)[C@H](CC(C)C)NC(=O)[C@H](CCCNC(=N)N)NC(=O)[C@H](CCCCN)NC(=O)[C@H](Cc1ccc(O)cc1)NC(=O)[C@H](Cc1ccccc1)NC(=O)[C@H](CC(=O)O)NC(=O)[C@H](CO)NC(=O)[C@@H](NC(=O)CNC(=O)[C@H](Cc1ccc(O)cc1)NC(=O)[C@H](CO)NC(=O)[C@H](CC(=O)O)NC(=O)[C@H](CC(C)C)NC(=O)[C@H](CCC(=O)O)NC(=O)[C@H](C)NC(=O)[C@H](CC(N)=O)NC(=O)[C@H](C)NC(=O)[C@H](C)NC(=O)[C@H](CCC(=O)O)NC(=O)[C@H](CCCCN)NC(=O)[C@H](C)NC(=O)[C@H](CCC(=O)O)NC(=O)[C@H](C)NC(=O)[C@H](CC(C)C)NC(=O)CN)C(C)C)[C@@H](C)CC)[C@@H](C)O)C(C)C)C(C)C)C(=O)N[C@@H](CC(C)C)C(=O)N[C@@H](C)C(=O)N[C@@H](C)C(=O)N[C@@H](CC(C)C)C(=O)N1CCC[C@H]1C(=O)O", "note": "[PEP07914]", "values": [
      {"measurement": "immunogenicity classification", "setting": "[3]", "value": "non-immunogenic"}
    ]},
    {"smiles": "CC[C@H](C)[C@H](NC(=O)[C@H](C)NC(=O)[C@H](CC(=O)O)NC(=O)[C@H](CCCCN)NC(=O)[C@H](CC(C)C)NC(=O)[C@H](C)NC(=O)[C@H](CCC(=O)O)NC(=O)[C@@H](NC(=O)CNC(=O)[C@H](CCC(=O)O)NC(=O)[C@@H](NC(=O)[C@@H](NC(=O)[C@H](CCCCN)NC(=O)[C@H](C)NC(=O)[C@H](CCCCN)NC(=O)[C@H](CC(=O)O)NC(=O)[C@@H](NC(=O)[C@H](CC(C)C)NC(=O)[C@H](CCCNC(=N)N)NC(=O)[C@H](CCCCN)NC(=O)[C@H](Cc1ccc(O)cc1)NC(=O)[C@H](Cc1ccccc1)NC(=O)[C@H](CC(=O)O)NC(=O)[C@H](CO)NC(=O)[C@@H](NC(=O)CNC(=O)[C@H](Cc1ccc(O)cc1)NC(=O)[C@H](CSC1CC(=O)N(CCNC(=O)CN2CCN(CC(=O)O)CCN(CC(=O)O)CCN(CC(=O)O)CC2)C1=O)NC(=O)[C@H](CC(=O)O)NC(=O)[C@H](CC(C)C)NC(=O)[C@H](CCC(=O)O)NC(=O)[C@H](C)NC(=O)[C@H](CC(N)=O)NC(=O)[C@H](C)NC(=O)[C@H](C)NC(=O)[C@H](CCC(=O)O)NC(=O)[C@H](CCCCN)NC(=O)[C@H](C)NC(=O)[C@H](CO)NC(=O)[C@H](C)NC(=O)[C@H](CC(C)C)NC(=O)CN)C(C)C)[C@@H](C)CC)[C@@H](C)O)C(C)C)C(C)C)C(=O)N[C@@H](CC(C)C)C(=O)N[C@@H](C)C(=O)N[C@@H](C)C(=O)N[C@@H](CC(C)C)C(=O)N1CCC[C@H]1C(=O)O", "note": "(stereo partly drawn) [PEP07968]", "values": [
      {"measurement": "immunogenicity classification", "setting": "[3]", "value": "non-immunogenic"}
    ]},
    {"smiles": "CC[C@H](C)[C@H](NC(=O)[C@H](C)NC(=O)[C@H](CC(=O)O)NC(=O)[C@H](CCCCN)NC(=O)[C@H](CC(C)C)NC(=O)[C@H](C)NC(=O)[C@H](CCC(=O)O)NC(=O)[C@@H](NC(=O)CNC(=O)[C@H](CCC(=O)O)NC(=O)[C@@H](NC(=O)[C@@H](NC(=O)[C@H](CCCCN)NC(=O)[C@H](C)NC(=O)[C@H](CCCCN)NC(=O)[C@H](CC(=O)O)NC(=O)[C@@H](NC(=O)[C@H](CC(C)C)NC(=O)[C@H](CCCNC(=N)N)NC(=O)[C@H](CCCCN)NC(=O)[C@H](Cc1ccc(O)cc1)NC(=O)[C@H](Cc1ccccc1)NC(=O)[C@H](CC(=O)O)NC(=O)[C@H](CO)NC(=O)[C@@H](NC(=O)CNC(=O)[C@H](Cc1ccc(O)cc1)NC(=O)[C@H](CO)NC(=O)[C@H](CC(=O)O)NC(=O)[C@H](CC(C)C)NC(=O)[C@H](CCC(=O)O)NC(=O)[C@H](C)NC(=O)[C@H](CC(N)=O)NC(=O)[C@H](C)NC(=O)[C@H](C)NC(=O)[C@H](CCC(=O)O)NC(=O)[C@H](CCCCN)NC(=O)[C@H](C)NC(=O)[C@H](CCC(=O)O)NC(=O)[C@H](C)NC(=O)[C@H](CC(C)C)NC(=O)[C@H](CO)NC(=O)CN)C(C)C)[C@@H](C)CC)[C@@H](C)O)C(C)C)C(C)C)C(=O)N[C@@H](CC(C)C)C(=O)N[C@@H](C)C(=O)N[C@@H](C)C(=O)N[C@@H](CC(C)C)C(=O)N1CCC[C@H]1C(=O)O", "note": "[PEP07986]", "values": [
      {"measurement": "solubility", "setting": "physchem; pH 7.2", "value": "more than 42 mg/ml"},
      {"measurement": "solubility", "setting": "physchem; pH 7.2, aqueous buffer", "value": "≥ 42", "unit": "mg/mL"}
    ]}
  ]
}
